No end group written: not given here.
Target: T1, GST-TR2 (Homo sapiens, UniProt P13056)
T1 construct: pGEX-3x-TR2 were constructed by inserting full-length TR2 fragments to individual vectors; made in house; host or cells: E. coli BL21(DE3) pLysS
T1 sequence (P13056 1-603): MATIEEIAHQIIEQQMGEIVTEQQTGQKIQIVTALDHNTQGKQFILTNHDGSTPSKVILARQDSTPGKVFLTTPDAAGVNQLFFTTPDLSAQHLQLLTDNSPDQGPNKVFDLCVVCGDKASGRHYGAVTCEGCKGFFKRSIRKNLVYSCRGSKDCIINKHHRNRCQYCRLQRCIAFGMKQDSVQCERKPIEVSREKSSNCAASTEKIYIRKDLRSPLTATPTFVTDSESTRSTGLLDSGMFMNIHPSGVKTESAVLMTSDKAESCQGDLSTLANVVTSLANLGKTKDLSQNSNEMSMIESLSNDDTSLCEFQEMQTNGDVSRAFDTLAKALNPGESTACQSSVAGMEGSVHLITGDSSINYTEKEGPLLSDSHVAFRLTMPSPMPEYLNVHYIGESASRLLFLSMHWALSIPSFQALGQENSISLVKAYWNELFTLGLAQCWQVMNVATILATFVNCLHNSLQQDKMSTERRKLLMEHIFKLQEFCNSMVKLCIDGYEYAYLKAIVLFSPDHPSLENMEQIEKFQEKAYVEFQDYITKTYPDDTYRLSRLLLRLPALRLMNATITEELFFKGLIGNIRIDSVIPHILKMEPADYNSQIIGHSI
Assay: GST-TR2 pull-down assay
Format: binding
Conditions: for Interaction with GST-TR2 fusion protein: 35S methionine-labeled proteins, Example 4; for Interaction with GST-TR2 in pull-down assay / Direct interaction with GST-TR2 fusion protein: in vitro translated [35S]-labeled proteins; for Interaction with GST-TR2 in pull-down assay: Example 1; for Direct interaction with GST-TR2 fusion protein: Example 2
Protocol: Fusion proteins of GST-TR2, GST-ER segments and GST were obtained by transforming expressing plasmids into BL21(DE3) pLysS competent bacteria followed with 2-hour IPTG induction. GST-proteins were then purified by mixing Glutathione-Sepharose™ 4B (Pharmacia) into bacteria lysates on a rotating disk at 4° C. for 40 mm followed by washing with 1 mL NENT buffer (20 mM Tris-HCL (pH 8.0), 100 mM NaCl, 1 mM EDTA, 6 mM MgCl2, 1 mM Dithiothretiol, 8% Glycerol, 1 mM PMSF and 0.5% (v/v) NP-40). The ER, AR, RXRA., and TR2 proteins labeled with [35S] were generated in vitro by using the TNT reticulocyte lysate system (Promega). For the in vitro interaction, the glutathione-Sepharose bound GST-proteins were resuspended with 100 μl of interaction buffer (20 mM HEPES pH 7.9, 150 mM KCl, 5 mM MgCl2. 0.5 mM EDTA, 0.5 mM Dithiothretiol, 0.1% (v/v) NP-40, 0.1% (w/v) BSA and 1 mM PMSF) and mixed with 5 μl of […] at 4° C. for 3 h. After extensive washes with NENT buffer, the bound proteins were separated on an SDS/8% PAGE and visualized by using autoradiography.
GST alone and GST fusion proteins were purified by Glutathione-Sepharose 4B beads as instructed by manufacturer (Amersham Pharmacia). The pull-down assay was performed with 5 μl of in vitro-translated [^35S]-labeled proteins as described previously (Yeh, S. et al. (2000) Proc. Natl. Acad. Sci. USA 97, 11256-61).
GST control protein and GST-TR2 fusion protein were purified by glutathione-sepharose 4B beads as described by manufacture (Amersham. Biosciences). Five microliters of in vitro-translated 35S-methionine-labeled proteins was used to perform the Pull-down assay as described previously [4F].

AR: androgen receptor, SEQ ID NO:31
Interaction with GST-TR2 fusion protein: able to interact
Interaction with GST-TR2 in pull-down assay: can interact well
Direct interaction with GST-TR2 fusion protein: directly interact

ER-#6: interaction blocker, ER fragment aa 312-340, as HA-tagged peptide, expression plasmid or cleaved peptide (ADQMVSALLDAEPPILYSEYDPTRPFSEA; also: HA tag (position not given here); UniProt P03372 312-340, looked up, fragment)
Interaction of GST-TR2 with [35S]-labeled ER (increasing amounts of HA-ER-#6 peptide, absence of E2): inhibited

RXR: retinoid X receptor, another member of the steroid receptor superfamily
Interaction with GST-TR2 fusion protein: not able to interact
Interaction with GST-TR2 in pull-down assay: not
Direct interaction with GST-TR2 fusion protein: not
